Results from publication PMC6382702.

Test system: T1, CagR (Streptomyces clavuligerus F613-1), ORF:155d736f
T1 sequence: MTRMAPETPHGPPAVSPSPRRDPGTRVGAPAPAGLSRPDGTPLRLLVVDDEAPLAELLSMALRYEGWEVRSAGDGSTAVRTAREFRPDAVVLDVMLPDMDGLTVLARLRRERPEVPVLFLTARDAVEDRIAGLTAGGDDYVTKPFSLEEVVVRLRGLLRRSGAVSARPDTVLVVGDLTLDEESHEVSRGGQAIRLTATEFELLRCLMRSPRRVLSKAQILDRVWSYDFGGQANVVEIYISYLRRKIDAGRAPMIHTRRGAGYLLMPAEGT
Test: EMSA
Details: EMSA with 3.0 ug His-CagR and polydI/dC (1.0 mg as printed); buffer, pH and temperature not given (as in Zhang et al., 2015)

In the case of “CGACGCGCTCGGTCACAGGAATCTCCTTACGATGCATGCGGTGATGGAATAAGTATGCACTCGCCCGCATGTTTCGTCAATCATGGGTGCGCGATCGGTGCGTCCGACCGAAAGTGATCGGACGCTTACGCCATGGAGCGGCGCGCTGAACGCGTCGACGGAGGAATCCCCGGGGCCGTCGGACAGCGGCAGGGGTCTTCCGCACGGCGGCGGCCCGCCGCGGCATGCCGCAGGCCCCCGGCCGAGAGGGCCGGGGGCCTGCGGGGGTGGCGGCGCCGCGCCGGAGGGCCGGTCAGGCC (double strand) [argG upstream region (P2)]”, the binding is reported as “binds”.
